Measured values: article PMC10419308, “Structural Insight into the Amino Acid Environment of the Two-Domain Laccase’s Trinuclear Copper Cluster” (International Journal of Molecular Sciences, 2023)

What was measured:
purified protein [1] = substrate: CCn1c(=NN=c2sc3cc(S(=O)(=O)O)ccc3n2CC)sc2cc(S(=O)(=O)O)ccc21; test: purified protein; assay type: biochemical, Streptomyces griseoflavus; settings: pH 4.0, 50 mM Britton-Robinson buffer, 30 °C, co-substrate O2, table header prints unit as MM
purified protein [2] = substrate: COc1cccc(OC)c1O; test: purified protein; assay type: biochemical, Streptomyces griseoflavus; settings: 30 °C, co-substrate O2, table header prints unit as MM
[3] = pH 8.5, 50 mM Britton-Robinson buffer
[4] = pH 7.5, 50 mM Britton-Robinson buffer
[5] = pH 7.0, 50 mM Britton-Robinson buffer

Protein	Km (purified protein [1]) [µM]	kcat (purified protein [1]) [s⁻¹]	kcat/Km (purified protein [1]) [M⁻¹ s⁻¹]	Km (purified protein [2]; [3]) [µM]	kcat (purified protein [2]; [3]) [s⁻¹]	kcat/Km (purified protein [2]; [3]) [M⁻¹ s⁻¹]	Km (purified protein [2]; [4]) [µM]	kcat (purified protein [2]; [4]) [s⁻¹]	kcat/Km (purified protein [2]; [4]) [M⁻¹ s⁻¹]	Km (purified protein [2]; [5]) [µM]	kcat (purified protein [2]; [5]) [s⁻¹]	kcat/Km (purified protein [2]; [5]) [M⁻¹ s⁻¹]
SgfSL (Streptomyces griseoflavus Small Laccase) (Streptomyces griseoflavus; D268N/M199G/R240H) (protein, pET32-Xa/LIC, E. coli BL21(DE3)/Rosetta; N-terminal thioredoxin-His tail cut off with factor Xa; homotrimer; all variants tested here carry D268N (wild-type data copied from earlier work)) AGAAPAGGEVRRVTMYAERLAGGQMGYGLEKGKASIPGPLIELNEGDTLHVEFENTMDVPVSLHVHGLDYEISSDGTKQNKSHVEPGGTRTYTWRTHEPGRRADGTWRAGSAGYWHYHDHVVGTEHGTGGIRNGLYGPVIVRRKGDVLPDATHTIVFNDGTINNRPAHTGPNFEATVGDRVEIVMITHGEYYHTFHMHGHHWADNRTGMLTGPDDPSQVIDNKICGPANSFGFQIIAGEGVGAGAWMYHCHVQSHSDMGMVGLFLVKKPDGTIPGYDPQEHAH	250 ± 20	38.9 ± 0.99	156000	240 ± 30	8.19 ± 0.13	34100						
SgfSL (Streptomyces griseoflavus Small Laccase) (Streptomyces griseoflavus; D268N/M199G) (protein, pET32-Xa/LIC, E. coli BL21(DE3)/Rosetta; N-terminal thioredoxin-His tail cut off with factor Xa; homotrimer; all variants tested here carry D268N (wild-type data copied from earlier work)) AGAAPAGGEVRRVTMYAERLAGGQMGYGLEKGKASIPGPLIELNEGDTLHVEFENTMDVPVSLHVHGLDYEISSDGTKQNKSHVEPGGTRTYTWRTHEPGRRADGTWRAGSAGYWHYHDHVVGTEHGTGGIRNGLYGPVIVRRKGDVLPDATHTIVFNDGTINNRPAHTGPNFEATVGDRVEIVMITHGEYYHTFHMHGHRWADNRTGMLTGPDDPSQVIDNKICGPANSFGFQIIAGEGVGAGAWMYHCHVQSHSDMGMVGLFLVKKPDGTIPGYDPQEHAH	220 ± 30	37.7 ± 2.41	171000				290 ± 20	1.88 ± 0.05	6490			
SgfSL (Streptomyces griseoflavus Small Laccase) (Streptomyces griseoflavus; D268N/M199A) (protein, pET32-Xa/LIC, E. coli BL21(DE3)/Rosetta; N-terminal thioredoxin-His tail cut off with factor Xa; homotrimer; all variants tested here carry D268N (wild-type data copied from earlier work)) AGAAPAGGEVRRVTMYAERLAGGQMGYGLEKGKASIPGPLIELNEGDTLHVEFENTMDVPVSLHVHGLDYEISSDGTKQNKSHVEPGGTRTYTWRTHEPGRRADGTWRAGSAGYWHYHDHVVGTEHGTGGIRNGLYGPVIVRRKGDVLPDATHTIVFNDATINNRPAHTGPNFEATVGDRVEIVMITHGEYYHTFHMHGHRWADNRTGMLTGPDDPSQVIDNKICGPANSFGFQIIAGEGVGAGAWMYHCHVQSHSDMGMVGLFLVKKPDGTIPGYDPQEHAH	110 ± 30	21.4 ± 1.12	195000							870 ± 100	0.8 ± 0.03	920
